# Changes are numbered by the printed parent chain. Names and notes keep the numbering of the source. Where no end group is shown, it is not given here.
# B1: LynD K409E: LynD point mutant K409E (protein)
# chain: MQSTPLLQIQPHFHVEVIEPKQVYLLGEQANHALTGQLYCQILPLLNGQYTLEQIVEKLDGEVPPEYIDYVLERLAEKGYLTEAAPELSSEVAAFWSELGIAPPVAAEALRQPVTLTPVGNISEVTVAALTTALRDIGISVQTPTEAGSPTALNVVLTDDYLQPELAKINKQALESQQTWLLVKPVGSVLWLGPVFVPGKTGCWDCLAHRLRGNREVEASVLRQKQAQQQRNGQSGSVIGCLPTARATLPSTLQTGLQFAATEIAKWIVKYHVNATAPGTVFFPTLDGKIITLNHSILDLKSHILIKRSQCPTCGDPKILQHRGFEPLKLESRPKQFTSDGGHRGTTPEQTVQKYQHLISPVTGVVTELVRITDPANPLVHTYRAGHSFGSATSLRGLRNTLKHKSSGEGKTDSQSKASGLCEAVERYSGIFQGDEPRKRATLAELGDLAIHPEQCLCFSDGQYANRETLNEQATVAHDWIPQRFDASQAIEWTPVWSLTEQTHKYLPTALCYYHYPLPPEHRFARGDSNGNAAGNTLEEAILQGFMELVERDGVALWWYNRLRRPAVDLGSFNEPYFVQLQQFYRENDRDLWVLDLTADLGIPAFAGVSNRKTGSSERLILGFGAHLDPTIAILRAVTEVNQIGLELDKVPDENLKSDATDWLITEKLADHPYLLPDTTQPLKTAQDYPKRWSDDIYTDVMTCVNIAQQAGLETLVIDQTRPDIGLNVVKVTVPGMRHFWSRFGEGRLYDVPVKLGWLDEPLTEAQMNPTPMPF
# B2: LynD E423R: LynD point mutant E423R (protein)
# chain: B1 chain with E409K, E423R
# B3: LynD K409A: LynD point mutant K409A (protein)
# chain: B1 chain with E409A
# B4: LynD fusion: residues 21-38 of the PatE leader and an eleven residue long linker added to the N-terminus of LynD (SEQ ID NO: 39) (protein)
# chain: MSHHHHHHDYDENLYFQGSQLSSQLAELSEEALGDAGAGAGAGAGAGAMQSTPLLQIQPHFHVEVIEPKQVYLLGEQANHALTGQLYCQILPLLNGQYTLEQIVEKLDGEVPPEYIDYVLERLAEKGYLTEAAPELSSEVAAFWSELGIAPPVAAEALRQPVTLTPVGNISEVTVAALTTALRDIGISVQTPTEAGSPTALNVVLTDDYLQPELAKINKQALESQQTWLLVKPVGSVLWLGPVFVPGKTGCWDCLAHRLRGNREVEASVLRQKQAQQQRNGQSGSVIGCLPTARATLPSTLQTGLQFAATEIAKWIVKYHVNATAPGTVFFPTLDGKIITLNHSILDLKSHILIKRSQCPTCGDPKILQHRGFEPLKLESRPKQFTSDGGHRGTTPEQTVQKYQHLISPVTGVVTELVRITDPANPLVHTYRAGHSFGSATSLRGLRNTLKHKSSGKGKTDSQSKASGLCEAVERYSGIFQGDEPRKRATLAELGDLAIHPEQCLCFSDGQYANRETLNEQATVAHDWIPQRFDASQAIEWTPVWSLTEQTHKYLPTALCYYHYPLPPEHRFARGDSNGNAAGNTLEEAILQGFMELVERDGVALWWYNRLRRPAVDLGSFNEPYFVQLQQFYRENDRDLWVLDLTADLGIPAFAGVSNRKTGSSERLILGFGAHLDPTIAILRAVTEVNQIGLELDKVPDENLKSDATDWLITEKLADHPYLLPDTTQPLKTAQDYPKRWSDDIYTDVMTCVNIAQQAGLETLVIDQTRPDIGLNVVKVTVPGMRHFWSRFGEGRLYDVPVKLGWLDEPLTEAQMNPTPMPF
# modifications: Modified heterocyclase
# B5: TruD: cyanobactin heterocyclase from the trunkamide pathway, SEQ ID NO: 3 (protein)
# chain: MQPTALQIKPHFHVEIIEPKQVYLLGEQGNHALTGQLYCQILPFLNGEYTREQIVEKLDGQVPEEYIDFVLSRLVEKGYLTEVAPELSLEVAAFWSELGIAPSVVAEGLKQPVTVTTAGKGIREGIVANLAAALEEAGIQVSDPRDPKAPKAGDSTAQLQVVLTDDYLQPELAAINKEALERQQPWLLVKPVGSILWLGPLFVPGETGCWHCLAQRLQGNREVEASVLQQKRALQERNGQNKNGAVSCLPTARATLPSTLQTGLQWAATEIAKWMVKRHLNAIAPGTARFPTLAGKIFTFNQTTLELKAHPLSRRPQCPTCGDRETLQRRGFEPLKLESRPKHFTSDGGHRAMTPEQTVQKYQHLIGPITGVVTELVRISDPANPLVHTYRAGHSFGSATSLRGLRNVLRHKSSGKGKTDSQSRASGLCEAIERYSGIFQGDEPRKRATLAELGDLAIHPEQCLHFSDRQYDNRESSNERATVTHDWIPQRFDASKAHDWTPVWSLTEQTHKYLPTALCYYRYPFPPEHRFCRSDSNGNAAGNTLEEAILQGFMELVERDSVCLWWYNRVSRPAVDLSSFDEPYFLQLQQFYQTQNRDLWVLDLTADLGIPAFVGVSNRKAGSSERIILGFGAHLDPTVAILRALTEVNQIGLELDKVSDESLKNDATDWLVNATLAASPYLVADASQPLKTAKDYPRRWSDDIYTDVMTCVEIAKQAGLETLVLDQTRPDIGLNVVKVIVPGMRFWSRFGSGRLYDVPVKLGWREQPLAEAQMNPTPMPF
# modifications: Prochloron sp. 06037A
# Experiments:
# LynD = experiment: Trans activation of LynD by exogenous leader peptide (turnover of test peptide ITACITFCAYDG); assay type: biochemical, Lyngbya sp.; settings: for acceleration of turnover of the test peptide by LynD: 5.5 μM leader peptide in trans, 5 μM LynD, 100 μM ITACITFCAYDG; for heterocycles observed in test peptide with LynD plus leader in trans: overnight incubation
# Experimental: (§1) For all heterocyclization reactions, […] PatE′ (and variants,) was incubated with 2 μM enzyme in 150 mM NaCl, 10 mM HEPES pH 7.4, 1 mM TCEP, 5 mM ATP and 5 mM MgCl2 for 16 h at 37° C. Samples were analyzed by ESI or MALDI MS (LCT, Micromass or 4800 MALDI TOF/TOF Analyzer, ABSciex). For cis trans activation studies, 100 μM ITACITFCAYDG synthetic test peptide (Peptide Protein Research Ltd) was reacted with 5 μM heterocyclase enzyme in the presence and absence of 5.5 μM LAELSEEAL synthetic peptide, or 5.5 μM full-length PatE′4 leader peptide. The reaction was carried out in 150 mM NaCl, 10 mM HEPES pH 7.4, 1 mM TCEP, 5 mM ATP and 5 mM MgCl2 for 16 h at 37° C. and analyzed as above. Synthetic peptides were purchased from Peptide Protein Research Ltd.
# To assess the relative rates of heterocyclization under various conditions, heterocyclization reactions were monitored at regular intervals using MALDI TOF MS. In each case, reactions of PatE′ or ITACITFCAYDG synthetic peptide were prepared as described and incubated at 37° C. prior to addition of LynD allowing a 0 time-point to be recorded. Time points for each reaction were recorded as follows: For PatE′ with LynD (standard conditions), PatE′ with LynD in the presence of α-β-methelene ATP, and ITACITFCAYDG with LynD fusion, the reaction was monitored after 1, 5, 10, 15, 20, 30, 45, 60, 90, 120 and 180 minutes; For ITACITFCAYDG with LynD in the absence, and presence of either minimal leader LAELSEEAL peptide, or full length PatE′4 leader peptide, the reaction was monitored after 15, 30, 60, 120, 240 and 1440 minutes. Reactions were set up in triplicate, and each sample was analyzed by MALDI TOF MS in triplicate (9 spectra recorded in total for each reaction at each time point). For each time point, the total ion count for each species (0, 1 and 2 heterocycles) was recorded, averaged and the percentage of each species was calculated. The rate of each reaction relative to the wild-type reaction (PatE′+LynD) was determined. LC-MS of reaction mixtures was performed on a Waters LC-MS system (LCT mass spectrometer and 2795 HPLC) using a Waters MassPrep column (2.1×10 mm). Solvent B was 0.1% formic acid and Solvent A was MeCN containing 0.1% formic acid. Gradient 0-0.5 min 98% B, 0.5-2.5 min linear to 2% B, 2.5-4.5 min 2% B, 4.5-4.6 min linear to 98% B, […] 98% B at 0.05 ml min−1. The following conditions were used on the mass spectrometer: ESI +ve, capillary voltage 3.5 kV, cone voltage 40 V, mass range 500-2500 m/z, RF lens 500. The spectra were combined across the eluted protein peak and the charged ion series processed using Water's MaxEnt algorithm to give protein mass, using peak width at half height on the strongest peak in the ion envelope. […]
# PatE′ = experiment: Heterocyclization reaction with PatE′, MS analysis; assay type: biochemical; settings: PatE′ with 2 μM enzyme, 5 mM ATP, 5 mM MgCl2, 16 h at 37° C.; TABLE 1
# Experimental: as §1
# [1] = tested on: ITACITFCAYDG synthetic test peptide; experiment: Heterocyclization of leaderless core/test peptide ITACITFCAYDG (LCMS, MALDI TOF MS time course); assay type: biochemical; settings: for heterocycles formed in core peptide ITACITFCAYDG: no leader
# Experimental: After 16 h core peptide incubated with either TruD or LynD only 1 heterocycle is formed. In contrast when incubated with LynD fusion, the heterocyclization reaction is nearly complete—the sample containing predominantly 2 heterocycles after just 2 h. PatE′ and LynD reaction after 2 h is shown as a reference.
# as §1, with “Synthetic peptides were purchased from Peptide Protein Research Ltd.” left out
# To assess the relative rates of heterocyclization under various conditions, heterocyclization reactions were monitored at regular intervals using MALDI TOF MS. In each case, reactions of PatE′ or ITACITFCAYDG synthetic peptide were prepared as described and incubated at 37° C. prior to addition of LynD allowing a 0 time-point to be recorded. Time points for each reaction were recorded as follows: For PatE′ with LynD (standard conditions), PatE′ with LynD in the presence of α-β-methelene ATP, and ITACITFCAYDG with LynD fusion, the reaction was monitored after 1, 5, 10, 15, 20, 30, 45, 60, 90, 120 and 180 minutes; For ITACITFCAYDG with LynD in the absence, and presence of either minimal leader LAELSEEAL peptide, or full length PatE′4 leader peptide, the reaction was monitored after 15, 30, 60, 120, 240 and 1440 minutes. Reactions were set up in triplicate, and each sample was analyzed by MALDI TOF MS in triplicate (9 spectra recorded in total for each reaction at each time point). […] The rate of each reaction relative to the wild-type reaction (PatE′+LynD) was determined. […]
# Sequence of PatE′ (as listed by the source): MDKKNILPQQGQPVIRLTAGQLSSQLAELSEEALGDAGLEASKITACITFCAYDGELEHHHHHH
molecule,measurement,setting,value
"full-length PatE leader: full-length leader peptide from trypsin digestion of quadruple mutant PatE′4 (D2Y, K3E, K4E, R16E)",acceleration of turnover of the test peptide by LynD,LynD,6.7 fold
same,heterocycles observed in test peptide with LynD plus leader in trans,LynD,both heterocycles are observed
"LAELSEEAL (ends and bridges not checked) [minimal leader, residues 26 to 34 of PatE]",acceleration of turnover of the test peptide by LynD,LynD,5.0 fold
same,heterocycles observed in test peptide with LynD plus leader in trans,LynD,both heterocycles are observed
B1,No. of heterocycles (PatE′),PatE′,2
B2,No. of heterocycles (PatE′),PatE′,0
B3,No. of heterocycles (PatE′),PatE′,1
B4,heterocycles formed in core peptide ITACITFCAYDG,"[1]; after 2 h, LCMS",2
same,rate of processing both cysteines in the test peptide,[1]; compared with native LynD on full length PatE′ substrate,comparable to the full length PatE′ substrate
B5,heterocycles formed in core peptide ITACITFCAYDG,"[1]; after 16 h / overnight, 5 μM enzyme, 100 μM peptide, 37° C.",1
